Experimental data published in patent US20030143210A1 (Biogen, published 2003).

Target: T1, lymphotoxin-β (human, UniProt Q06643 4-244, N-linked oligosaccharide (about 3 kD lost on N-glycanase treatment))
T1 construct: Type II membrane protein; In the reimmunoprecipitation tests the protein had been eluted from SDS-PAGE gel slices; also called LT-β; LT-B
T1 sequence: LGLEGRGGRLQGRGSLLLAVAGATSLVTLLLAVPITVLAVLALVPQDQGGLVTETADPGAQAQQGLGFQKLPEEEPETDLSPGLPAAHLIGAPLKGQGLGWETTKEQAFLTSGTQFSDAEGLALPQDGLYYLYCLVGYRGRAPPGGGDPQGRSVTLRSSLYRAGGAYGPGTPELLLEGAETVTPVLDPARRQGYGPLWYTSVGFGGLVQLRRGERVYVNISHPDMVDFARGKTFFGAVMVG
Assay: co-immunoprecipitation, then reimmunoprecipitation of separated bands from 35S-Met labeled II-23.D7 cells
Protocol: Reimmunoprecipitation of SDS-PAGE-separated antigens was carried out by excising labeled bands from gels, rehydrating them for 10 minutes in TBS, 0.2% SDS, and then dicing the gel slices into small pieces. The proteins were eluted by incubation in 1 ml TBS, 0.2% SDS for 8 hours at room temperature, with rotation. After elution the gel pieces were removed by centrifugation, and NP-40 was added to the supernatant to a final concentration of 2%. The eluted proteins were then immunoprecipitated as above, and reanalyzed by SDS-PAGE.

B1: lymphotoxin-α (ligand, human, UniProt P01374 35-205, looked up)
chain: LPGVGLTPSAAQTARQHPKMHLAHSTLKPAAHLIGDPSKQNSLLWRANTDRAFLQDGFSLSNNSLLVPTSGIYFVYSQVVFSGKAYSPKATSSPLYLAHEVQLFSSQYPFHVPLLSSQKMVYPGLQEPWLHSMYHGAAFQLTQGDQLSTHTDGIPHLVLSPSTVFFGAFAL
modifications: N-linked oligosaccharide
notes: mature; also called LT-α; LT
Does B1 bind?
Result: binds
